For one substance, other: Soluble MAP1S LC (%) results are on record in paper PMC6293278.

The target in the experiment is Taxol-stabilized microtubules (polymerized purified tubulin) (UniProt P02550). Kind of experiment: Taxol-stabilized microtubule co-sedimentation assay. Particulars: 3:1 MT:MAP1S LC ratio; MAP1S LC pre-incubated with CDKL5 (WT according to the lane labels of panel E; the key of panel F prints CDKL5 KD); n = 3 technical …; parent: est. 13; read off a plot.

“Strep(II)-MAP1S LC WT (microtubule-associated protein 1S light chain) (from UniProt P0C5W1) S786A; S812A”: the other: Soluble MAP1S LC (%) was found to be 4.2%.
